Consider twelve molecules from patent publication US20020164721A1, “Design of a polyepitopic construct for the induction of HLA-A2.1 restricted HIV 1 specific CTL responses using HHD mice” (priority 1999, published 2002).

A value given as a limit tells only on which side of the number the result lay.

The chains are these.
B1: L10V (peptide)
peptide: LLDTGADDTV
modifications: not checked
B2: K9L (peptide)
peptide: KLTPLCVSL
modifications: not checked
B3: Tyrosinase.368-N (peptide)
peptide: YMNGTMSQV
modifications: not checked
B4: gp100.476 (peptide)
peptide: VLYRYGSFSV
modifications: not checked
B5: NA17-A.nt38 (peptide)
peptide: VLPDVFIRC
modifications: not checked
B6: p53.65 (peptide)
peptide: RMPEAAPPV
modifications: not checked
B7: Tyrosinase.1 (peptide)
peptide: MLLAVLYCL
modifications: not checked
B8: Melan-A/MART-1.32 (peptide)
peptide: ILTVILGVL
modifications: not checked
B9: gp100.457 (peptide)
peptide: LLDGTATLRL
modifications: not checked
B10: Tyrosinase.368-D (peptide)
peptide: YMDGTMSQV
modifications: not checked
B11: Her2/neu.654 (peptide)
peptide: IISAVVGIL
modifications: not checked
B12: MAGE-3.271 (peptide)
peptide: FLWGPRALV
modifications: not checked

The target of one assay is T1, HLA-A2.1 molecules on T2 (TAP-, HLA-A2.1+) cells (human). As to the kind of experiment: T2 cells, HLA-A2.1 stabilisation, indirect immunofluorescence FACS.
Consider B1, for which the relative affinity (RA) (ratio to reference peptide I9V) came out at 10.

Turning to B2, the relative affinity (RA) (ratio to reference peptide I9V) came out at 1.35.

In a further assay the target is T1, HLA-A2.1 molecules on T2 (TAP-, …). As to the kind of experiment: T2 cells, HLA-A2.1 stabilisation, BB7.2 immunofluorescence FACS.
As to B3, the relative affinity (RA) (ratio to reference peptide HIV 1 rt.476) is 2.2. Still for that read-out and setting: as for B4, the figure is 10; as for B5, 1.52. Still for that read-out and setting: as for B6, the figure is 0.91. Still for that read-out and setting: the value for B7 was > 60. Regarding B8, the relative affinity (RA) (ratio to reference peptide HIV 1 rt.476) was found to be 21.1. The same measure, in the same setting: as for B9, the figure is 1.65; as for B10, 2.27.

A further assay shares this target. As to the kind of experiment: T2 cells, decay of surface peptide-HLA-A2.1 complexes, FACS.
Turning to B3, the DC50 (half-life of peptide-HLA-A2.1 complexes) was > 8 h.

For the molecule B5, the DC50 (half-life of peptide-HLA-A2.1 complexes) is > 8 h. Same read-out and setting: as for B11, the figure is 4 h; as for B1, < 2 h; as for B12, 6 h. As for B10, the DC50 (half-life of peptide-HLA-A2.1 complexes) is > 6 h.

On to B2, for which the DC50 (half-life of peptide-HLA-A2.1 complexes) is > 6 h.
